According to the RNAGym collection of RNA variant scans (doi:10.1038/ncomms11558):

B1: mRNA-splicing (parent)
chain: GAUCCAGAUCUAACUUGGGGUGGCUUUGUCUUCUUCUUUUGCCAAUUCCACUAAUUGUUUGGG

Variants of: B1
Test: exon inclusion enrichment score (log2 ratio to wild type); higher = more inclusion; FAS exon 6 minigene, HEK293

| Variant | exon inclusion enrichment score |
| --- | --- |
| GAUCCAGAUCUAACUUCGGGUGGCUUUGUCUUCUUCUUUUGCCAAUUCCACUAAUUGUUUGGG | -0.067 |
| GAUCCAGAUCUAACUUUGGGUGGCUUUGUCUUCUUCUUUUGCCAAUUCCACUAAUUGUUUGGG | -0.191 |
| GAUCCAGAUCUAACUUAGGGUGGCUUUGUCUUCUUCUUUUGCCAAUUCCACUAAUUGUUUGGG | -2.56 |
| GAUCCAGAUCUAACUUGGGGUGGCAUUGUCUUCUUCUUUUGCCAAUUCCACUAAUUGUUUGGG | 0.211 |
| GAUCCAGAUCUAACUUGGGGUGGCGUUGUCUUCUUCUUUUGCCAAUUCCACUAAUUGUUUGGG | 0.284 |
| GAUCCAGAUCUAACUUGGGGUGGCCUUGUCUUCUUCUUUUGCCAAUUCCACUAAUUGUUUGGG | 0.429 |
| GAUCCAGAUCUAACUUGGGGUGGCUUCGUCUUCUUCUUUUGCCAAUUCCACUAAUUGUUUGGG | 0.72 |
| GAUCCAGAUCUAACUUGGGGUGGCUUGGUCUUCUUCUUUUGCCAAUUCCACUAAUUGUUUGGG | -0.115 |
| GAUCCAGAUCUAACUUGGGGUGGCUUAGUCUUCUUCUUUUGCCAAUUCCACUAAUUGUUUGGG | -0.647 |
| GAUCCAGACCUAACUUGGGGUGGCUUUGUCUUCUUCUUUUGCCAAUUCCACUAAUUGUUUGGG | 1.28 |
| GAUCCAGAACUAACUUGGGGUGGCUUUGUCUUCUUCUUUUGCCAAUUCCACUAAUUGUUUGGG | -0.097 |
| GAUCCAGAGCUAACUUGGGGUGGCUUUGUCUUCUUCUUUUGCCAAUUCCACUAAUUGUUUGGG | -0.183 |
| GAUCCAGAUGUAACUUGGGGUGGCUUUGUCUUCUUCUUUUGCCAAUUCCACUAAUUGUUUGGG | -0.124 |
| GAUCCAGAUUUAACUUGGGGUGGCUUUGUCUUCUUCUUUUGCCAAUUCCACUAAUUGUUUGGG | 0.024 |
| GAUCCAGAUAUAACUUGGGGUGGCUUUGUCUUCUUCUUUUGCCAAUUCCACUAAUUGUUUGGG | -0.393 |
| GAUCCAGAUCUAACUGGGGGUGGCUUUGUCUUCUUCUUUUGCCAAUUCCACUAAUUGUUUGGG | -0.702 |
| GAUCCAGAUCUAACUAGGGGUGGCUUUGUCUUCUUCUUUUGCCAAUUCCACUAAUUGUUUGGG | -0.773 |
| GAUCCAGAUCUAACUCGGGGUGGCUUUGUCUUCUUCUUUUGCCAAUUCCACUAAUUGUUUGGG | 0.271 |
| GAUGCAGAUCUAACUUGGGGUGGCUUUGUCUUCUUCUUUUGCCAAUUCCACUAAUUGUUUGGG | -0.794 |
| GAUACAGAUCUAACUUGGGGUGGCUUUGUCUUCUUCUUUUGCCAAUUCCACUAAUUGUUUGGG | -2.11 |
| GAUUCAGAUCUAACUUGGGGUGGCUUUGUCUUCUUCUUUUGCCAAUUCCACUAAUUGUUUGGG | -2.86 |
| GAUCCAGAUCUAACUUGGCGUGGCUUUGUCUUCUUCUUUUGCCAAUUCCACUAAUUGUUUGGG | 0.027 |

| Variant | exon inclusion enrichment score |
| --- | --- |
| GAUCCAGAUCUAACUUGGAGUGGCUUUGUCUUCUUCUUUUGCCAAUUCCACUAAUUGUUUGGG | 0.892 |
| GAUCCAGAUCUAACUUGGUGUGGCUUUGUCUUCUUCUUUUGCCAAUUCCACUAAUUGUUUGGG | 0.032 |
| GAUCCAGAUCUAACUUGGGGUUGCUUUGUCUUCUUCUUUUGCCAAUUCCACUAAUUGUUUGGG | -0.589 |
| GAUCCAGAUCUAACUUGGGGUCGCUUUGUCUUCUUCUUUUGCCAAUUCCACUAAUUGUUUGGG | 0.067 |
| GAUCCAGAUCUAACUUGGGGUAGCUUUGUCUUCUUCUUUUGCCAAUUCCACUAAUUGUUUGGG | -2.09 |
| GAUCCAAAUCUAACUUGGGGUGGCUUUGUCUUCUUCUUUUGCCAAUUCCACUAAUUGUUUGGG | -1.15 |
| GAUCCACAUCUAACUUGGGGUGGCUUUGUCUUCUUCUUUUGCCAAUUCCACUAAUUGUUUGGG | -0.443 |
| GAUCCAUAUCUAACUUGGGGUGGCUUUGUCUUCUUCUUUUGCCAAUUCCACUAAUUGUUUGGG | -2.07 |
| GAUCCAGAUCUAACUUGAGGUGGCUUUGUCUUCUUCUUUUGCCAAUUCCACUAAUUGUUUGGG | -0.636 |
| GAUCCAGAUCUAACUUGCGGUGGCUUUGUCUUCUUCUUUUGCCAAUUCCACUAAUUGUUUGGG | 0.301 |
| GAUCCAGAUCUAACUUGUGGUGGCUUUGUCUUCUUCUUUUGCCAAUUCCACUAAUUGUUUGGG | 0.258 |
| GAUCCAGAUCUAAUUUGGGGUGGCUUUGUCUUCUUCUUUUGCCAAUUCCACUAAUUGUUUGGG | -0.791 |
| GAUCCAGAUCUAAAUUGGGGUGGCUUUGUCUUCUUCUUUUGCCAAUUCCACUAAUUGUUUGGG | -0.554 |
| GAUCCAGAUCUAAGUUGGGGUGGCUUUGUCUUCUUCUUUUGCCAAUUCCACUAAUUGUUUGGG | -0.135 |
| GAUCCAGAUCUAACUUGGGGUGGCUUUGACUUCUUCUUUUGCCAAUUCCACUAAUUGUUUGGG | 0.257 |
| GAUCCAGAUCUAACUUGGGUUGGCUUUGUCUUCUUCUUUUGCCAAUUCCACUAAUUGUUUGGG | -2.17 |
| GAUCCAGAUCUAACUUGGGAUGGCUUUGUCUUCUUCUUUUGCCAAUUCCACUAAUUGUUUGGG | 0.232 |
| GAUCCAGAUCUAACUUGGGCUGGCUUUGUCUUCUUCUUUUGCCAAUUCCACUAAUUGUUUGGG | 0 |
| GAUCCAGAUCUAACGUGGGGUGGCUUUGUCUUCUUCUUUUGCCAAUUCCACUAAUUGUUUGGG | 0.039 |
| GAUCCAGAUCUAACAUGGGGUGGCUUUGUCUUCUUCUUUUGCCAAUUCCACUAAUUGUUUGGG | -0.077 |
| GAUCCAGAUCUAACCUGGGGUGGCUUUGUCUUCUUCUUUUGCCAAUUCCACUAAUUGUUUGGG | 0.272 |
| GAUCCAGAUCUAACUUGGGGUGGCUUUUUCUUCUUCUUUUGCCAAUUCCACUAAUUGUUUGGG | -1.36 |

| Variant | exon inclusion enrichment score |
| --- | --- |
| GAUCCAGAUCUAACUUGGGGUGGCUUUCUCUUCUUCUUUUGCCAAUUCCACUAAUUGUUUGGG | -1.84 |
| GAUCCAGAUCUAACUUGGGGUGGCUUUAUCUUCUUCUUUUGCCAAUUCCACUAAUUGUUUGGG | -1.07 |
| GCUCCAGAUCUAACUUGGGGUGGCUUUGUCUUCUUCUUUUGCCAAUUCCACUAAUUGUUUGGG | -0.31 |
| GGUCCAGAUCUAACUUGGGGUGGCUUUGUCUUCUUCUUUUGCCAAUUCCACUAAUUGUUUGGG | 0.511 |
| GUUCCAGAUCUAACUUGGGGUGGCUUUGUCUUCUUCUUUUGCCAAUUCCACUAAUUGUUUGGG | -0.046 |
| AAUCCAGAUCUAACUUGGGGUGGCUUUGUCUUCUUCUUUUGCCAAUUCCACUAAUUGUUUGGG | -3.07 |
| CAUCCAGAUCUAACUUGGGGUGGCUUUGUCUUCUUCUUUUGCCAAUUCCACUAAUUGUUUGGG | -4.23 |
| UAUCCAGAUCUAACUUGGGGUGGCUUUGUCUUCUUCUUUUGCCAAUUCCACUAAUUGUUUGGG | -5.1 |
| GAUCCAGAUCUAACUUGGGGUGACUUUGUCUUCUUCUUUUGCCAAUUCCACUAAUUGUUUGGG | 0.238 |
| GAUCCAGAUCUAACUUGGGGUGCCUUUGUCUUCUUCUUUUGCCAAUUCCACUAAUUGUUUGGG | -0.164 |
| GAUCCAGAUCUAACUUGGGGUGUCUUUGUCUUCUUCUUUUGCCAAUUCCACUAAUUGUUUGGG | -0.765 |
| GAUCCAGAUCUAACUUGGGGUGGCUGUGUCUUCUUCUUUUGCCAAUUCCACUAAUUGUUUGGG | -0.547 |
| GAUCCAGAUCUAACUUGGGGUGGCUAUGUCUUCUUCUUUUGCCAAUUCCACUAAUUGUUUGGG | 0.39 |
| GAUCCAGAUCUAACUUGGGGUGGCUCUGUCUUCUUCUUUUGCCAAUUCCACUAAUUGUUUGGG | -0.07 |
| GAUCAAGAUCUAACUUGGGGUGGCUUUGUCUUCUUCUUUUGCCAAUUCCACUAAUUGUUUGGG | -0.066 |
| GAUCGAGAUCUAACUUGGGGUGGCUUUGUCUUCUUCUUUUGCCAAUUCCACUAAUUGUUUGGG | -0.076 |
| GAUCUAGAUCUAACUUGGGGUGGCUUUGUCUUCUUCUUUUGCCAAUUCCACUAAUUGUUUGGG | -4.59 |
| GAUCCAGAUCUAACUUGGGGAGGCUUUGUCUUCUUCUUUUGCCAAUUCCACUAAUUGUUUGGG | 0.125 |
| GAUCCAGAUCUAACUUGGGGGGGCUUUGUCUUCUUCUUUUGCCAAUUCCACUAAUUGUUUGGG | -5.29 |
| GAUCCAGAUCUAACUUGGGGCGGCUUUGUCUUCUUCUUUUGCCAAUUCCACUAAUUGUUUGGG | 0.243 |
| GAUCCUGAUCUAACUUGGGGUGGCUUUGUCUUCUUCUUUUGCCAAUUCCACUAAUUGUUUGGG | -0.25 |
| GAUCCCGAUCUAACUUGGGGUGGCUUUGUCUUCUUCUUUUGCCAAUUCCACUAAUUGUUUGGG | -0.522 |

| Variant | exon inclusion enrichment score |
| --- | --- |
| GAUCCGGAUCUAACUUGGGGUGGCUUUGUCUUCUUCUUUUGCCAAUUCCACUAAUUGUUUGGG | 0.571 |
| GAUCCAGUUCUAACUUGGGGUGGCUUUGUCUUCUUCUUUUGCCAAUUCCACUAAUUGUUUGGG | -0.416 |
| GAUCCAGGUCUAACUUGGGGUGGCUUUGUCUUCUUCUUUUGCCAAUUCCACUAAUUGUUUGGG | 0.152 |
| GAUCCAGCUCUAACUUGGGGUGGCUUUGUCUUCUUCUUUUGCCAAUUCCACUAAUUGUUUGGG | 0.321 |
| GAUCCAGAUCGAACUUGGGGUGGCUUUGUCUUCUUCUUUUGCCAAUUCCACUAAUUGUUUGGG | 0.304 |
| GAUCCAGAUCCAACUUGGGGUGGCUUUGUCUUCUUCUUUUGCCAAUUCCACUAAUUGUUUGGG | 0.559 |
| GAUCCAGAUCAAACUUGGGGUGGCUUUGUCUUCUUCUUUUGCCAAUUCCACUAAUUGUUUGGG | 0.08 |
| GAUCCAGAUCUAGCUUGGGGUGGCUUUGUCUUCUUCUUUUGCCAAUUCCACUAAUUGUUUGGG | -0.194 |
| GAUCCAGAUCUACCUUGGGGUGGCUUUGUCUUCUUCUUUUGCCAAUUCCACUAAUUGUUUGGG | 1.26 |
| GAUCCAGAUCUAUCUUGGGGUGGCUUUGUCUUCUUCUUUUGCCAAUUCCACUAAUUGUUUGGG | -0.29 |
| GAUCCAGAUCUUACUUGGGGUGGCUUUGUCUUCUUCUUUUGCCAAUUCCACUAAUUGUUUGGG | -0.405 |
| GAUCCAGAUCUCACUUGGGGUGGCUUUGUCUUCUUCUUUUGCCAAUUCCACUAAUUGUUUGGG | 0.251 |
| GAUCCAGAUCUGACUUGGGGUGGCUUUGUCUUCUUCUUUUGCCAAUUCCACUAAUUGUUUGGG | 0.431 |
| GACCCAGAUCUAACUUGGGGUGGCUUUGUCUUCUUCUUUUGCCAAUUCCACUAAUUGUUUGGG | -0.472 |
| GAGCCAGAUCUAACUUGGGGUGGCUUUGUCUUCUUCUUUUGCCAAUUCCACUAAUUGUUUGGG | -0.136 |
| GAACCAGAUCUAACUUGGGGUGGCUUUGUCUUCUUCUUUUGCCAAUUCCACUAAUUGUUUGGG | -0.683 |
| GAUCCAGAUCUAACUUGGGGUGGUUUUGUCUUCUUCUUUUGCCAAUUCCACUAAUUGUUUGGG | -1.64 |
| GAUCCAGAUCUAACUUGGGGUGGAUUUGUCUUCUUCUUUUGCCAAUUCCACUAAUUGUUUGGG | 0.043 |
| GAUCCAGAUCUAACUUGGGGUGGGUUUGUCUUCUUCUUUUGCCAAUUCCACUAAUUGUUUGGG | -6.71 |
